Results taken from the nanobody polyreactivity screen of Harvey et al. (2022).

Assay: yeast display, Sf9 membrane polyspecificity reagent, FACS + sequencing; frameworks hold sequencing errors
How it was run: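 A nanobody's polyreactivity label depends on the gate it was sorted from. Yeast display cells were stained with 10% biotinylated, detergent-solubilized Sf9 membrane reagent for 1 hour at 4 °C, enriched on streptavidin microbeads and sorted by FACS. The low and high (top ~1%) gates were set on anti-HA fluorescence for expression and streptavidin fluorescence for reagent binding.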

Row | Sequence | polyreactivity (PSR sort gate)
1 | QVQLQESGGGLVQAGGSLRLSCAASGTITVLYKMAWFRQEPGKEREFVASINYGTSTYYADSVKGRFTVSRDSAKNTVYLQMNSLKPEDTAVYYCAAAYRWQDVYRYWGQGTQVTVSS | low polyreactivity
2 | QVQLQESGGGLVQAGGSLRLSCAASGYIILQYAMGWYRPAPGKERELVASIARGTSTYYADSVKGRFTISRDNAKNTVYLQMNSLKPEDTAVYYCAVIYSWGLWHDYWGQGTQVTVSS | high polyreactivity
3 | QVQLQESGGGLVQAGGSLRLSCAASGYISAGRQMGWYRQAPGKEREFVATINGGATTNYADSVKGRFTISRDNAKNSVFLQMNSLKPEDTAVYYCAAVIWYVQDYSYWGQGAQVTVSS | high polyreactivity
4 | QVQLQESGGGLVQAGGSLRLSCAASGYISHADEMGWYRQAPGKEHELVASISNGGSTNYADSVKARCTISRDNAKTTVYLQMNSLKSEATAVYFCAAWTGQVDIHYYWGQGTQVTVSS | low polyreactivity
5 | QVQLQESGGGLVQAGGSLRLSCAASGYISHADEMGWYRQAPGKEHELVASISNGGSTNYADSVKGRFTISRDNAKNTVYLQMNSLKSELTAVYYCAAWTGQVDIHYYWGQGTQVTVSS | low polyreactivity
6 | QVQLQESGGGLVQAGGSLRLSCAASGYISYFVGMGWYRQAPGKEREFVASIADGSNTYYADSVKGRFTISRDNAKNTVYLQRNSLKQEDTAVYYCAVEDSWTYRFDYWGQGTQVTVSS | high polyreactivity
7 | QVQLQESGGGLVQAGGSLRLSCEASGSISHYIFMGWYRQAQGKEREFVAGIGYGGTTNYADSVKGRFTISRDNAKNTVYLQMNSLKPEDTAMYYCAAREATEFYLYYWGQGTQVTVSS | low polyreactivity
8 | QVQLQESGGGLVQAGGSLRLSCEASGYISLAQTIGWYRQAPGKEREFVASIALGSSTYYTDSVKGSFTISRDKEKTTVYLQMNSLKPAETGVYYCAARVGASYAHDYWGQGTQVTVSS | low polyreactivity
9 | QVQLQESGGGLVQAGGSLRLSSAASGNFFDADIIGRYRQAPGKERELVASITDGGSTNYADSVKGRFTISRDDTRNTVHLQMNSLYPEDTAVYYCAAIAYPDIPTYFDYDSDYSYWGQGTQVTVSS | high polyreactivity
10 | QVQLQESGGGLVQAGGSLRLSSAASGSIIQYGYMGWYRQAPGKEREFVAGIGGGTSNYADSVKGRFTMSRDNAKNTVYLQMNSLKPEDTAVYYCNTDAGDYYGENYWGQGTQVTVSS | low polyreactivity
11 | QVQLQESGGGLVQAGGSLRLSSAASGTISPLPAMGWYRHAPGKEREFVAGIDTGAIHNYADSVKGRFTIRRDNAKNTVYLQMNSLKPEDTAVYYCAVFPAAYEYYERYYTYWGQGTQVTVSS | low polyreactivity
12 | QVQLQESGGGLVQAGGSLRLTCAASGSISRLDYMGWYRQASGKERELVAAIDNGSTTYYADSVKGRLTISRDNAKYTVYLQMNSLKPEDTAVYFCAAVRGRGGTHAYWGQGTQVTVSG | low polyreactivity
13 | QVQLQESGGGLVQAGGSLRLTCAASGTITVLYKRGWFRQAPGKEREFVASINYGTSTYYADSVKGRFTVSRDSAINTVYLQMTSLKPEDTAVDYCAAAYRWQDVYRYWGQGTQVTVSS | low polyreactivity
14 | QVQLQESGGGLVQAGGSLRPSCEASGNISLNVYMCWYRQAPGKEREFVAGTADGATTNYADSVKGRFTISRDNAKNTVFLQMNSLKPEDTAVYDCIKDYGYVQLRFYGPGYYWGQGTQVTVSS | low polyreactivity
15 | QVQLQESGGGLVQAGGSLRQSCAASGSISATDSVGWYRQAPGKEREFVATIDGGANTNYADSVKGRFTISRDNAKNTVYLQMNSLKPEDTAVYYCAKDSQTARDFDYWGQGTQVTVSS | low polyreactivity
16 | QVQLQESGGGLVQAGGSLRQSYAASGYIFPSLAMGWYRQAPGKEREFVAAIGRGSTNNYADSVKGRFTISRDNAKNTAYQQMNSLKPEDTAVYYCAADASPLTRNLYWGQGTQVTVSS | low polyreactivity
17 | QVQLQESGGGLVQAGGSLRVSCAASGYISSWYPRGWYRQAPGKEREFVATISPGATTYYADSVKGRFTISRDYAKNTVYLQMNSLKPEDTAVYYCSAGQENNDFYSYWGQGTQVTVSS | low polyreactivity
18 | QVQLQESGGGLVQAGGSPRLSCAASDNIFPDSVMCWYRQAPGKERELVATIGFGATTNYADSVKGRFTISRDNAKNTVYLQMNSLKPEDTAVYYCAADPLNYEYFCYGGQGTQVTVSS | low polyreactivity
19 | QVQLQESGGGLVQAGGTITLGYEMGWYRQAPGKEREFVAGIDTGAITYYADSVKGRFTNSRDNAKNTVYLQMNSLKPEDTAVYYCAAIQTHTYAHSYWGQGTQVTVSS | high polyreactivity
20 | QVQLQESGGGLVQAGGTLRLSCAASGSFSADEDMGWYRQAQGKEREFVAGISVGGNTNYADSVKGPFTISRENAKNTVYLQINSLKPEDTAVYYCAVLQDVYDALDFWAQGTQVTVSS | high polyreactivity
21 | QVQLQESGGGLVQAGGTLRLSCAASGSFSADEDMGWYRQAQGKEREFVAGISVGGNTNYADSVKGRFTISRENAKNTVYLELNSLKPEDTAVYYCAVLQDVYDALDYWAQGTQVTVSS | high polyreactivity
22 | QVQLQESGGGLVQAGVSLRLSCAASGYISIEEDISWFCQAPGKERELVASITYGAITYYADSVKGRLTISSDNAKNTVYRQMNCLKPEDTAEYYCAVSYDYQQYYVSCGQGTQVTVSS | low polyreactivity

Row | Sequence | polyreactivity (PSR sort gate)
23 | QVQLQESGGGLVQASGSLRLSCAASGNIFPDYVMGWYRLAPGKEREFVANITGGSTTNYADSVKGRFTISRDNAKNTVYLQMNSLNPEDTAVYYCAVNFGTVVLYLYWGQGTQVTVSS | high polyreactivity
24 | QVQLQESGGGLVQASGSPRLSCAASGNIFDADIMGWYRQAPGKQCELVASITDGGSTNYADSEKGRFTISSDNAKNTVYLQMNSLKPEDTAVYYCAAIAYPDIPTYFDYDSDYFYWGQGTHVTVSS | high polyreactivity
25 | QVQLQESGGGLVQAVCSRRLSCAASGSFSSRDAMGWYRQAPGTEREFVATIAVGGNTNYADSAKGRFTISRDNAKITVYLQMNSPKPEDTAVYYRAAVIDFDIFTYWGQGTQVTVRS | high polyreactivity
26 | QVQLQESGGGLVQVGGSLRLSCAASGNIFIYGIMGWNRQAPGKERELVASINLGGITNYADSVKGRFTISRDNAKNTVYLQMISLKPEDTAVYYCAAYVVTGQNYGYWGQGTQVTVSS | low polyreactivity
27 | QVQLQESGGGLVQVGGSLRLSCPSSGTIFIYGFLGWNRQAPGKERELVASINLGGITNYADSVKGRCTISRDNAKNTVNLQMISLKPEDTAVYYCATYVVTGQNYGYWGQGTQVTVSR | low polyreactivity
28 | QVQLQESGGGLVQVGGSLRLTCAASGTIFIYGFLGWNRQAPGKERELVASINLGGITNYADSVKGRFTISRDNANNTVYLQMISLKPEDTAVYFCAAYFVTGQNYGSWGQGTQVTVSS | low polyreactivity
29 | QVQLQESGGGLVQVGGSQRLSCAASGNIFYNYAMGRYRHAQGKEHEFDATINHGTSINYADSVKGRFTISRDNAKNTVYLQMNSLKPEDTAVYYCAADLSWTDNLFYWGQGTQVTVSS | low polyreactivity
30 | QVQLQESGGGLVRAGGSLRLSCAASGYISTSIAMGWYRQAPGKERELVASFGGGAITNYADSVKGFTISRDNGKNTVYLQMNCLKPEDTAVYYFAVYHGDRGYYSYWGQGTQVTVSS | low polyreactivity
31 | QVQLQESGGGMVQAGGSLLSCAASGTISYYREMGWYRQAPGKERELVAGIGVGTITYYADSVKGRFTIIRDNAKNTVYLQMNSLKPEDTAVYYCAAHIDGNDYHAYWGQGTQVTVSS | low polyreactivity
32 | QVQLQESGGGPVQAGGSMRLSCAASGSISELRPMGWYREAPGKERELVAGISTGGSTNYADSVKGRFTISRDNAKKTVFLQMNSLKPEDTAVYYCAAASYGEGSYDYWGQGTQVTVRS | high polyreactivity
33 | QVQLQESGGGQVQAGGSLRLSSAASGYIFAYNYMGWYRKAPGKERELVAAIVHGSTTNYADSVKGRFTISRDNAKNTVYLHMNNLKPEDTAVYYCAVDAERYYLHSYWGQGTQVTVSS | high polyreactivity
34 | QVQLQESGGGQVQAVGSLRLSCAPSGSNFVSDTMCWYRHAPGKDRELVASIGRGSTTNHADSVKGRFTISRDNAKNIVYLLMNSLKPEDTAVYYCAALESYGKYHGYWGQGTQVTVSS | low polyreactivity
35 | QVQLQESGGLVQAGGLRLSCAASGSVSYQEAMGWYRQAPGKERELVATISFGANTNYADSVKGRFTISRDNAKNTVYLHMNSRKPEDTAVYYCAAESLFDDYYGYWGQGTQVTVSS | low polyreactivity
36 | QVQLQESGGRLVQADGSLRLSCAASGSIFGYYYMGWYRQAPGKDRELVATINICGITNYADSVKGRFTISRDNAKNTVYLQMNSLKPDDTAVYYCAADEYAQRDLGYWGQGTQVTVSS | low polyreactivity
37 | QVQLQESGGVLVQAGGSLRLSCAASGNILDADIMGWYRQAPGKERELVASITDGGSTNYADSVKGRFTISRDNAKNTVYLQMNSLKPEDTAVYYCAAIAYPDIPTYFDYDSEYFYWGQGTQVTVSS | low polyreactivity
38 | QVQLQESGGVQAGGSLRLSCAESGYISRSDVMGWYRQAPGKERELVATINNGTITYYADSVKGRFTISRDNAKNTVYLQMNSLKPEDTAVHYCAVVQSDTDSLYYWGQGTQVTVSS | low polyreactivity
39 | QVQLQESGGVQAGGSLRQSCAASGYISRSDVMGWYRQAPGKERELVATINNATITYYADSVKGRFTISRDNAKNTVYLQMNSLKPEDTAVHYFAVVQSDTDSLYYWGQGTQVTVSS | low polyreactivity
40 | QVQLQESGRRPGAAGGSPRMSCAASGNIFWVAVMGRYRQAPGKERELVASIGFGCTTYYADSVKCRFTISRDNAKNTVYLQMISLKPEDTAVYYCAAPLYDWGELDYWGQGTQVPVSS | low polyreactivity
41 | QVQLQESGSGLVQAGGSLRLSCAASGAIFPAYLMGWYRQAPGKERELVAGISYGSITYCADSVKGRFNISRDNEKNTVYLQMNSLKPEDTAVYYCAVWRPGGDEYYYWGQGTQVTVSS | low polyreactivity
42 | QVQLQESRGGLVQAVRSLRLSCAASGTILYSLGMGWYRQAPGKRREFVASITRGTTTNYAESVKGRFTISRDNAKKTVYPQMNSLKAEDTGVSFCAGPPFGVSSYDYWGQGNQVTVSS | low polyreactivity
43 | QVQLQESRGGPVLAGGSLRLSCAASGTIFVRLDMGWYRQAPGKEREFVATIGSGSSTYYADSVKGSFTISRDNVKNTVYLQMNSLKPEDTAVYYCAVSAAEQSRHYYWDQGTQVTVSS | low polyreactivity
44 | QVQLQESVGGLVLAGGSLRLICSASANISVYGTMGWYRKAPGKEREFVATIDPGTNTNYADSVKDRFTISRDNAKNTVYLQMNSLKPEDTAVYYCEVEGGSDWPYRYWGQGTQVTVSS | low polyreactivity
